Here are results for 11 molecules from patent US20190127444A1 (NEW YORK UNIVERSITY, published 2019).

Assay [1] addresses T1, Human serum albumin conjugated with biotin (Rockland 009-0633) (human, UniProt P02768 25-609).
T1 construct: also called HSA
As to the kind of experiment: ELISA, biotinylated HSA on streptavidin plate. (In general: An ELISA detects its analyte on a solid surface through an enzyme-linked reagent.)

Assay [2] has as its target T2, LukAB toxoid variant (LukA E323A), recombinant polyhistidine-tagged (S. aureus, UniProt Q2FFA2 28-351; P21224 30-338).
T2 sequence 1: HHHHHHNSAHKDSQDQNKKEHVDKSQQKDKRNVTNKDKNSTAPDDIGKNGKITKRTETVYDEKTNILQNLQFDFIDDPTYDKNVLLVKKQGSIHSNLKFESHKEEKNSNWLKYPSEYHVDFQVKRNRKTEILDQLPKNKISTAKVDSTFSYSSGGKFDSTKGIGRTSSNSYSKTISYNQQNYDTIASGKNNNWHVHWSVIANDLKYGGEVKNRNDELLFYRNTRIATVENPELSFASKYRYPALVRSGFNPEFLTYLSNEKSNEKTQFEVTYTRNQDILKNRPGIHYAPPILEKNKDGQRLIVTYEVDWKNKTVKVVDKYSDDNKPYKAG
T2 sequence 2: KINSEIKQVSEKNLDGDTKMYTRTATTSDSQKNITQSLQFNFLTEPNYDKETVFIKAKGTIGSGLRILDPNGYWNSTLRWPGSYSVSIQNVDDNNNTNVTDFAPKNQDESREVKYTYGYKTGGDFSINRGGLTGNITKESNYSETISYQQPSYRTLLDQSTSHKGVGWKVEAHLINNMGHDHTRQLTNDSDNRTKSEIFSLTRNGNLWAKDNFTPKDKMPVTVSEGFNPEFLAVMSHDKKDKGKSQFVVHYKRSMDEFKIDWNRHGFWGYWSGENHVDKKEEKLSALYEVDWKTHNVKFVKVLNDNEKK
As to the kind of experiment: BLI, FN3 protein on streptavidin pins, LukAB toxoid at 10 ug/mL. Background: BLI is a label-free optical method that tracks binding on a fibre tip over time.

The target in assay [3] is T2, LukAB toxoid variant (LukA E323A), …. The experiment in a line: SPR (Biacore T200), single cycle kinetics, 1:1 model.
Assay [4] shares this target. As to the kind of experiment: SPR (Biacore T200), construct captured via anti-human Fc, LukAB as analyte. A general note: SPR reads the build-up and loss of mass on a sensor chip optically.
Assay [5] shares this target. The experiment in a line: ELISA, biotinylated toxin on streptavidin plate.

The term Kd denotes the concentration at which binding is half-saturated.

T1 sequence (P02768 25-609 limits assumed): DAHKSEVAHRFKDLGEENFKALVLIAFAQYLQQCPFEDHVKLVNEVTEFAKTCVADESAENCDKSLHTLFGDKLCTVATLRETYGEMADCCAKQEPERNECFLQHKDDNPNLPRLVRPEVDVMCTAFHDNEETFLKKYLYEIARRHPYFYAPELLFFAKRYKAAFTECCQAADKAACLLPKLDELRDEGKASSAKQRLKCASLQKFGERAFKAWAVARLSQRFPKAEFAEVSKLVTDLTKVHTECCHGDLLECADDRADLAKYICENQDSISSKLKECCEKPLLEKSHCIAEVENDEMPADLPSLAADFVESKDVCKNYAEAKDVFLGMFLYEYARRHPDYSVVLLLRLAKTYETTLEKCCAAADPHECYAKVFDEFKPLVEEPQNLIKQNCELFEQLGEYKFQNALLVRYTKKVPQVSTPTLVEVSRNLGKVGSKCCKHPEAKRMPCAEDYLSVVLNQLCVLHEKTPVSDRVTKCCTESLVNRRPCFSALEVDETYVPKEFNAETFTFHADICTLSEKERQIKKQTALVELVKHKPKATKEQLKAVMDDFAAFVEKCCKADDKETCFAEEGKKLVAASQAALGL

B1: Luk982 Hla binding FN3 domain, polyhistidine-tagged version (designed binder)
chain: LPAPKNLVVSRVTEDSARLSWTAPDAAFDSFAIGYPEYHDAGEAIHLFVPGSERSYDLTGLKPGTEYVVAIRGVKGGHASEPLHAHFTT
Consider B1, for which, in assay [1], the binding result is on record as “no binding (tested: 1 µM)”.

B2: Luk17-His-SA (designed binder)
chain: MLPAPKNLVVSRVTEDSARLSWTAPDAAFDSFWITYEEKFYRGEAIVLTVPGSERSYDLTGLKPGTEYKVWIVGVKGGQGSWPLSAIFTTGGHHHHHHGGGLNDIFEAQKIEWHE
Regarding B2, the binding result in assay [2] is reported as “binds”.

B3: Luk967 Hla binding FN3 domain, polyhistidine-tagged version (designed binder)
chain: LPAPKNLVVSRVTEDSARLSWEANAWDDVNFDSFLIQYQESEKVGEAIVLTVPGSERSYDLTGLKPGTEYTVSIYGVWNQTHYRWPSNPLSAIFTT
Regarding B3, the binding result in assay [1] is reported as “no binding (tested: 1 µM)”.

B4: mAb 5133 PRASA A6 HC-L4-AB (Table 1 Construct 6) (bispecific antibody)
heavy: EVQLVETGGGLVKPGGSLRLSCSASRFSFRDYYMTWIRQAPGKGPEWVSHISGSGSTIYYADSVRGRFTISRDNAKSSLYLQMDSLQADDTAVYYCARGGRATSYYWVHWGPGTLVTVSSASTKGPSVFPLAPSSKSTSGGTAALGCLVKDYFPEPVTVSWNSGALTSGVHTFPAVLQSSGLYSLSSVVTVPSSSLGTQTYICNVNHKPSNTKVDKKVEPKSCDKTHTCPPCPAPPVAGPDVFLFPPKPKDTLMISRTPEVTCVVVDVSHEDPEVKFNWYVDGVEVHNAKTKPREEQYNSTYRVVSVLTVLHQDWLNGKEYKCKVSNAALPAPIAKTISKAKGQPREPQVYTLPPSRDELTKNQVSLTCLVKGFYPSDIAVEWESNGQPENNYKTTPPVLDSDGSFFLYSKLTVDKSRWQQGNVFSCSVMHEALHNRFTQKSLSLSPGKGGGGSGGGGSGGGGSGGGGSMLPAPKNLVVSRVTEDSARLSWTAPDAAFDSFWITYEEKFYRGEAIVLTVPGSERSYDLTGLKPGTEYKVWIVGVKGGQGSWPLSAIFTT
light: EIVLTQSPATLSLSPGERATLSCRASQSVSGYLGWYQQKPGQAPRLLIYGASSRATGIPDRFSGSGSGTDFTLTISRLEPEDFAVYYCQQYGSSPLTFGGGTKLEIKRTVAAPSVFIFPPSDEQLKSGTASVVCLLNNFYPREAKVQWKVDNALQSGNSQESVTEQDSKDSTYSLSSTLTLSKADYEKHKVYACEVTHQGLSSPVTKSFNRGEC
notes: also called CR5133 PRASA A6 HC-L4-AB
Take B4: in assay [3], the Kd amounted to 0.07 nM.

B5: mAb 5133 PRASA A6 HC-L4-E (Table 1 Construct 15) (bispecific antibody)
heavy: EVQLVETGGGLVKPGGSLRLSCSASRFSFRDYYMTWIRQAPGKGPEWVSHISGSGSTIYYADSVRGRFTISRDNAKSSLYLQMDSLQADDTAVYYCARGGRATSYYWVHWGPGTLVTVSSASTKGPSVFPLAPSSKSTSGGTAALGCLVKDYFPEPVTVSWNSGALTSGVHTFPAVLQSSGLYSLSSVVTVPSSSLGTQTYICNVNHKPSNTKVDKKVEPKSCDKTHTCPPCPAPPVAGPDVFLFPPKPKDTLMISRTPEVTCVVVDVSHEDPEVKFNWYVDGVEVHNAKTKPREEQYNSTYRVVSVLTVLHQDWLNGKEYKCKVSNAALPAPIAKTISKAKGQPREPQVYTLPPSRDELTKNQVSLTCLVKGFYPSDIAVEWESNGQPENNYKTTPPVLDSDGSFFLYSKLTVDKSRWQQGNVFSCSVMHEALHNRFTQKSLSLSPGKGGGGSGGGGSGGGGSGGGGSMLPAPKNLVVSRVTEDSARLSWTAPDAAFDSFHIEYAEPWVWGEAIVLTVPGSERSYDLTGLKPGTEYVVFIGGVKGGHNSTPLSAIFTT
light: B4 light
notes: also called CR5133 PRASA A6 HC-L4-E
Take B5: in assay [4], the binding result is recorded as “no binding (tested: 100 nM)”.

B6: 3×4 linker variant of Construct 11 (bispecific antibody)
heavy: EVQLVETGGGLVKPGGSLRLSCSASRFSFRDYYMTWIRQAPGKGPEWVSHISGSGSTIYYADSVRGRFTISRDNAKSSLYLQMDSLQADDTAVYYCARGGRATSYYWVHWGPGTLVTVSSASTKGPSVFPLAPSSKSTSGGTAALGCLVKDYFPEPVTVSWNSGALTSGVHTFPAVLQSSGLYSLSSVVTVPSSSLGTQTYICNVNHKPSNTKVDKKVEPKSCDKTHTCPPCPAPPVAGPDVFLFPPKPKDTLMISRTPEVTCVVVDVSHEDPEVKFNWYVDGVEVHNAKTKPREEQYNSTYRVVSVLTVLHQDWLNGKEYKCKVSNAALPAPIAKTISKAKGQPREPQVYTLPPSRDELTKNQVSLTCLVKGFYPSDIAVEWESNGQPENNYKTTPPVLDSDGSFFLYSKLTVDKSRWQQGNVFSCSVMHEALHNRFTQKSLSLSPGKGGGGSGGGGSGGGGSMLPAPKNLVVSRVTEDSARLSWTAPDAAFDSFHIEYAEPWVWGEAIVLTVPGSERSYDLTGLKPGTEYVVFIGGVKGGHNSTPLSAIFTTGGGGSGGGGSGGGGSGGGGSMLPAPKNLVVSRVTEDSARLSWTAPDAAFDSFWITYEEKFYRGEAIVLTVPGSERSYDLTGLKPGTEYKVWIVGVKGGQGSWPLSAIFTT
light: B4 light
In the case of B6, in assay [5], the binding result was “binds”.

B7: mAb 5133 PRASA A6 (CR5133 PRASA A6; Table 1 Construct 4) (antibody)
heavy: EVQLVETGGGLVKPGGSLRLSCSASRFSFRDYYMTWIRQAPGKGPEWVSHISGSGSTIYYADSVRGRFTISRDNAKSSLYLQMDSLQADDTAVYYCARGGRATSYYWVHWGPGTLVTVSSASTKGPSVFPLAPSSKSTSGGTAALGCLVKDYFPEPVTVSWNSGALTSGVHTFPAVLQSSGLYSLSSVVTVPSSSLGTQTYICNVNHKPSNTKVDKKVEPKSCDKTHTCPPCPAPPVAGPDVFLFPPKPKDTLMISRTPEVTCVVVDVSHEDPEVKFNWYVDGVEVHNAKTKPREEQYNSTYRVVSVLTVLHQDWLNGKEYKCKVSNAALPAPIAKTISKAKGQPREPQVYTLPPSRDELTKNQVSLTCLVKGFYPSDIAVEWESNGQPENNYKTTPPVLDSDGSFFLYSKLTVDKSRWQQGNVFSCSVMHEALHNRFTQKSLSLSPGK
light: B4 light
notes: no FN3 domains
As for B7, the binding result in assay [4] was “no binding (tested: 100 nM)”.

B8: 3×3 linker variant of Construct 11 (bispecific antibody)
heavy: EVQLVETGGGLVKPGGSLRLSCSASRFSFRDYYMTWIRQAPGKGPEWVSHISGSGSTIYYADSVRGRFTISRDNAKSSLYLQMDSLQADDTAVYYCARGGRATSYYWVHWGPGTLVTVSSASTKGPSVFPLAPSSKSTSGGTAALGCLVKDYFPEPVTVSWNSGALTSGVHTFPAVLQSSGLYSLSSVVTVPSSSLGTQTYICNVNHKPSNTKVDKKVEPKSCDKTHTCPPCPAPPVAGPDVFLFPPKPKDTLMISRTPEVTCVVVDVSHEDPEVKFNWYVDGVEVHNAKTKPREEQYNSTYRVVSVLTVLHQDWLNGKEYKCKVSNAALPAPIAKTISKAKGQPREPQVYTLPPSRDELTKNQVSLTCLVKGFYPSDIAVEWESNGQPENNYKTTPPVLDSDGSFFLYSKLTVDKSRWQQGNVFSCSVMHEALHNRFTQKSLSLSPGKGGGGSGGGGSGGGGSMLPAPKNLVVSRVTEDSARLSWTAPDAAFDSFHIEYAEPWVWGEAIVLTVPGSERSYDLTGLKPGTEYVVFIGGVKGGHNSTPLSAIFTTGGGGSGGGGSGGGGSMLPAPKNLVVSRVTEDSARLSWTAPDAAFDSFWITYEEKFYRGEAIVLTVPGSERSYDLTGLKPGTEYKVWIVGVKGGQGSWPLSAIFTT
light: B4 light
With B8, in assay [5], the binding result is “binds”.

B9: Luk970 Hla binding FN3 domain, polyhistidine-tagged version (designed binder)
chain: LPAPKNLVVSRVTEDSARLSWNRGLIPFDSFLIQYQESEKVGEAIVLTVPGSERSYDLTGLKLGTEYTVSIYGVGTYYPWWPLSNPLSAIFTT
Take B9: the binding result in assay [1] is given as “no binding (tested: 1 µM)”.

B10: Luk969 Hla binding FN3 domain, polyhistidine-tagged version (designed binder)
chain: LPAPKNLVVSRVTEDSARLSWNSEIAEQFFFDSFLIQYQESEKVGEAIVLTVPGSERSYDLTGLKPGTEYTVSIYGVWGHWDWYWKTSNPLSAIFTT
B10: the binding result in assay [1] is reported as “no binding (tested: 1 µM)”.

B11: Luk1012 Hla binding FN3 domain, polyhistidine-tagged version (designed binder)
chain: LPAPKNLVVSRVTEDSARLSWTAPDAAFDSFFILYVEYSVNGEAIELSVPGSERSYDLTGLKPGTEYDVIIGGVKGGNHSKPLVAFFTT
For B11, in assay [1], the binding result is recorded as “no binding (tested: 1 µM)”.
